According to publication PMC9841331 (The EMBO Journal, 2023):
Values joined by “and” are separate entries in the source; they are usually repeats but may differ in a detail not shown here. Identical values can stand only once. Values belong to the binder of their own block, whether it stands above or below them.

Key:
native gel or EMSA = target: the molecule itself; test: native gel or EMSA
[1] = target: retromer^mRuby (yeast Vps26/Vps29/Vps35 complex labelled with mRuby) (S. cerevisiae, UniProt P40335 1-379; P38759 1-282; P34110 1-944); test: fluorescence microscopy of recruitment to supported membrane tubes

B1: retromer^mClover (yeast Vps26/Vps29/Vps35 complex carrying mClover-tagged Vps29), wild-type Vps35 (complex, S. cerevisiae)
chain 1: MSIFFKPPIDIEILFDNEESRKHVDIATRSSNSSYKSMKESLPVYEDGESLGGIVTLRVRDSKKVDHLGIKVSVIGSIDMLKSHGSGNSSSKKVTSSTSSSSSNGSVDVRKNSVDQFLCQSYDLCPAGELQHSQSFPFLFRDLSKRYESYKGKNVDVAYYVKVTVMRKSTDISKIKRFWVYLYNSVTTAPNTLSANETKATTNDIAGGNYAADNASDNTQTKSTQGEAADVNQVLPISHSNNEPKPVRLDIGIENCLHIEFEYAKSQYSLKEVIVGRIYFLLTRLRIKHMELSLITRESSGLQTSNVMTDSTAIRYEIMDGSSVKGETIPIRLFLSGYDLTPNMSCNYFNVKNYLSLVIIDEDGRRYFKQSEITLYRTR
chain 2: MLLLALSDAHIPDRATDLPVKFKKLLSVPDKISQVALLGNSTKSYDFLKFVNQISNNITIVRGEFDNGHLPSTKKDKASDNSRPMEEIPMNSIIRQGALKIGCCSGYTVVPKNDPLSLLALARQLDVDILLWGGTHNVEAYTLEGKFFVNPGSCTGAFNTDWPIVFDVEDSDEAVTSEVDKPTKENQSEDDDAKGGSTGKEQPGSYTPKEGTAGERENENESNVKPENQFKEDEVDMSDSDINGSNSPSFCLLDIQGNTCTLYIYLYVNGEVKVDKVVYEKE
chain 3: MAYADSPENAIAVIKQRTALMNRCLSQHKLMESLQHTSIMLTELRNPNLSPKKYYELYVIIFDSLTNLSTYLIENHPQNHHLADLYELVQYTGNVVPRLYLMITVGTSYLTFNEAPKKEILKDMIEMCRGVQNPIRGLFLRYYLSQRTKELLPEDDPSFNSQFIMNNFIEMNKLWVRLQHQGPLRERETRTRERKELQILVGSQLVRLSQIIDDNFQMYKQDILPTILEQVIQCRDLVSQEYLLDVICQVFADEFHLKTLDTLLQTTLHLNPDVSINKIVLTLVDRLNDYVTRQLEDDPNATSTNAYLDMDVFGTFWDYLTVLNHERPDLSLQQFIPLVESVIVLSLKWYPNNFDNLNKLFELVLQKTKDYGQKNISLESEHLFLVLLSFQNSKLQLTSSTTAPPNSPVTSKKHFIFQLISQCQAYKNILALQSISLQKKVVNEIIDILMDREVEEMADNDSESKLHPPGHSAYLVIEDKLQVQRLLSICEPLIISRSGPPANVASSDTNVDEVFFNRHDEEESWILDPIQEKLAHLIHWIMNTTSRKQTMKNKIQFSLEAQLEILLLIKSSFIKGGINVKYTFPAIITNFWKLMRKCRMIQEYLLKKRPDNKTLLSHYSNLLKQMFKFVSRCINDIFNSCNNSCTDLILKLNLQCAILADQLQLNEISYDFFSQAFTIFEESLSDSKTQLQALIYIAQSLQKTRSLYKEAYYDSLIVRCTLHGSKLLKKQDQCRAVYLCSHLWWATEISNIGEEEGITDNFYRDGKRVLECLQRSLRVADSIMDNEQSCELMVEILNRCLYYFIHGDESETHISIKYINGLIELIKTNLKSLKLEDNSASMITNSISDLHITGENNVKASSNADDGSVITDKESNVAIGSDGTYIQLNTLNGSSTLIRGVVATASGSKLLHQLKYIPIHHFRRTCEYIESQREVDDRFKVIYV
- stoichiometry N (native gel or EMSA): 2 and 4

B2: retromer^PISA-mClover (Vps26/Vps29-mClover/Vps35^PISA) (complex, S. cerevisiae)
chain 1: MSIFFKPPIDIEILFDNEESRKHVDIATRSSNSSYKSMKESLPVYEDGESLGGIVTLRVRDSKKVDHLGIKVSVIGSIDMLKSHGSGNSSSKKVTSSTSSSSSNGSVDVRKNSVDQFLCQSYDLCPAGELQHSQSFPFLFRDLSKRYESYKGKNVDVAYYVKVTVMRKSTDISKIKRFWVYLYNSVTTAPNTLSANETKATTNDIAGGNYAADNASDNTQTKSTQGEAADVNQVLPISHSNNEPKPVRLDIGIENCLHIEFEYAKSQYSLKEVIVGRIYFLLTRLRIKHMELSLITRESSGLQTSNVMTDSTAIRYEIMDGSSVKGETIPIRLFLSGYDLTPNMSCNYFNVKNYLSLVIIDEDGRRYFKQSEITLYRTR
chain 2: MLLLALSDAHIPDRATDLPVKFKKLLSVPDKISQVALLGNSTKSYDFLKFVNQISNNITIVRGEFDNGHLPSTKKDKASDNSRPMEEIPMNSIIRQGALKIGCCSGYTVVPKNDPLSLLALARQLDVDILLWGGTHNVEAYTLEGKFFVNPGSCTGAFNTDWPIVFDVEDSDEAVTSEVDKPTKENQSEDDDAKGGSTGKEQPGSYTPKEGTAGERENENESNVKPENQFKEDEVDMSDSDINGSNSPSFCLLDIQGNTCTLYIYLYVNGEVKVDKVVYEKE
chain 3: MAYADSPENAIAVIKQRTALMNRCLSQHKLMESLQHTSIMLTELRNPNLSPKKYYELYVIIFDSLTNLSTYLIENHPQNHHLADLYELVQYTGNVVPRLYLMITVGTSYLTFNEAPKKEILKDMIEMCRGVQNPIRGLFLRYYLSQRTKELLPEDDPSFNSQFIMNNFIEMNKLWVRLQHQGPLRERETRTRERKELQILVGSQLVRLSQIIDDNFQMYKQDILPTILEQVIQCRDLVSQEYLLDVICQVFADEFHLKTLDTLLQTTLHLNPDVSINKIVLTLVDRLNDYVTRQLEDDPNATSTNAYLDMDVFGTFWDYLTVLNHERPDLSLQQFIPLVESVIVLSLKWYPNNFDNLNKLFELVLQKTKDYGQKNISLESEHLFLVLLSFQNSKLQLTSSTTAPPNSPVTSKKHFIFQLISQCQAYKNILALQSISLQKKVVNEIIDILMDREVEEMADNDSESKLHPPGHSAYLVIEDKLQVQRLLSICEPLIISRSGPPANVASSDTNVDEVFFNRHDEEESWILDPIQEKLAHLIHWIMNTTSRKQTMKNKIQFSLEAQLEILLLIKSSFIKGGINVKYTFPAIITNFWKLMRKCRMIQEYLLKKRPDNKTLLSHYSNLLKQMFKFVSRCINDIFNSCNNSCTDLILKLNLQCAILADQLQLNEISYAFFSQAFTIFEESLSDSKTQLQALIYIAQSLQKTRSLYKEAYYDSLIVRCTAHGSALLKKQDQCRAVYLCSHLWWATEISNIGEEEGITDNFYRDGKRVLECLQASLRVADSIMDNEQSCELMVEILNRCLYYFIHGDESETHISIKYINGLIELIKTNLKSLKLEDNSASMITNSISDLHITGENNVKASSNADDGSVITDKESNVAIGSDGTYIQLNTLNGSSTLIRGVVATASGSKLLHQLKYIPIHHFRRTCEYIESQREVDDRFKVIYV
- binding result (native gel or EMSA): binds

- binding result [1]: binds
B3: SNX-BAR complex (yeast sorting nexins Vps5/Vps17) (complex, S. cerevisiae)
chain 1: MDYEDNLEAPVWDELNHEGDKTQSLVSNSIESIGQISTNEERKDNELLETTASFADKIDLDSAPEWKDPGLSVAGNPQLEEHDNSKADDLINSLAPEQDPIADLKNSTTQFIATRESGGALFTGNANSPLVFDDTIYDANTSPNTSKSISGRRSGKPRILFDSARAQRNSKRNHSLKAKRTTASDDTIKTPFTDPLKKAEKENEFVEEPLDDRNERRENNEGKFTASVEKNILEQVDRPLYNLPQTGANISSPAEVEENSEKFGKTKIGSKVPPTEKAVAFKVEVKDPVKVGELTSIHVEYTVISESSLLELKYAQVSRRYRDFRWLYRQLQNNHWGKVIPPPPEKQSVGSFKENFIENRRFQMESMLKKICQDPVLQKDKDFLLFLTSDDFSSESKKRAFLTGSGAINDSNDLSEVRISEIQLLGAEDAAEVLKNGGIDAESHKGFMSISFSSLPKYNEADEFFIEKKQKIDELEDNLKKLSKSLEMVDTSRNTLAASTEEFSSMVETLASLNVSEPNSELLNNFADVHKSIKSSLERSSLQETLTMGVMLDDYIRSLASVKAIFNQRSKLGYFLVVIENDMNKKHSQLGKLGQNIHSEKFREMRKEFQTLERRYNLTKKQWQAVGDKIKDEFQGFSTDKIREFRNGMEISLEAAIESQKECIELWETFYQTNL
chain 2: MTSAVPYDPYDDLDNNPFAEPQEEDSEPAATTTDGSSSMSEERVGTEQTAASVQDNGTANNIQNGLGEEGNATRSKTSNEHNENQQPSQPSERVILPERSDEKKKYTLLAKVTGLERFGSATGKKENPTIIFDCSTNLPTFRKQQYKNVKKSYEEFHQLFKYLNVAIQESFVPTLPSAYTTFGINSEEDRMKVTRNFQLWFNRLSQDPLIIRNEEVAFFIESDFNTYTPINKSKSLASGLKRKTLKQLAPPYDEITELAEFRPLVKSIYVVSQSLQEKLLRVSRNRKMMVQEENAFGQDFVNLDEHNKLYRRYGKILTAVGDIDSIIATMDMATLYDGLEWIVRDAYAVKEALTNRHFIMRNLVQAQQNSKAKQEQARRFRSRRDINPMKIDEALRQLKAAAKNEQVLTLKLQRITSNMIIERKQWISWYEEWIRSSIKEFTLRKIEYERKKLTLLERVRSDIRKADENGGLSRLGRHAVSNNNSDTSQTLKGDSWTGESNRKSQIPINKIAHTEFDDELFTEDDGYNSQDSDTTSLNARHAASLLGMSTK
